Experimental data published in US20160046928A1 (Bicycle, published 2016).
Starred links: 1 amine or outer side, 2 acyl side, 3 side chain; linkers in the order of their positions; H or OH if unused. Positions of bridges follow the written chain, without caps; N, C: chain ends. Non-standard residues stand in square brackets, D forms with d. TBMB = c1c(C[*:1])cc(C[*:3])cc1C[*:2]; NMeR = CN[C@@H](CCCNC(=N)N)C(=O)O

B1: H-ACSDRF Y[CH2NH] RNCPADEALCG-OH (reduced peptide bond variant of PK15), TBMB conjugate (peptide)
peptide: H-ACSDRFRNCPADEALCG-OH
modifications: linker 2-9-16 via TBMB; also: reduced peptide bond Y[CH2NH] between Phe6 and Arg7

These binders were tested against kallikrein (UniProt P03952 20-638, limits assumed) (assay: cell-based or functional assay).
Sequence of kallikrein (P03952 20-638 limits assumed): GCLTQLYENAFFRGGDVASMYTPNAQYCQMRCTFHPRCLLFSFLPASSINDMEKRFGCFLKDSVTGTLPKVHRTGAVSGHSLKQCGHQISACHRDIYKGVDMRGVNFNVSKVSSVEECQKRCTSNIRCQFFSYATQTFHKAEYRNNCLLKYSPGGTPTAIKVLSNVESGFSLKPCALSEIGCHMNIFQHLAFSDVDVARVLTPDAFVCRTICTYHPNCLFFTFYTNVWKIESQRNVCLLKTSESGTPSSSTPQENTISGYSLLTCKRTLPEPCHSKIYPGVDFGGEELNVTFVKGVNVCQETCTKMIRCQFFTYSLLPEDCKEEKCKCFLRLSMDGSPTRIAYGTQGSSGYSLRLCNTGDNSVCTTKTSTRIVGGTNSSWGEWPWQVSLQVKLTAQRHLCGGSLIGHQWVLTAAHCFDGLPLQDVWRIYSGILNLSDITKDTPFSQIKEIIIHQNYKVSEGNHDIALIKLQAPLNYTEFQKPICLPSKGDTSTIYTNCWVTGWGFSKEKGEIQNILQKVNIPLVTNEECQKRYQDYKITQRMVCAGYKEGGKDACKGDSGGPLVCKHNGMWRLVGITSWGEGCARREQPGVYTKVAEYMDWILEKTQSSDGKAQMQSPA

First: B1
Second: H-ACSDRF[NMeR]NCPADEALCG-OH (linker 2-9-16 via TBMB) [H-ACSDRF-(NMeArg)-NCPADEALCG-OH (N-methyl-arginine variant of PK15), TBMB conjugate]
The “inhibition of kallikrein activity (IC50, substrate Z-Phe-Arg-amc, fluorescence)” value of the first is 5.4-fold higher: 16.6 µM for the first, 3.1 µM for the second.

H-ACSDR[dF]RNCPADEALCG-OH (linker 2-9-16 via TBMB) [H-ACSDRfRNCPADEALCG-OH (D-Phe variant of PK15), TBMB conjugate] was tested, and the “inhibition of kallikrein activity (IC50, substrate Z-Phe-Arg-amc, fluorescence)” value was 4 µM.
